In test [1] the target is GBP1 Δ207-223 variant, non-farnesylated (human) (UniProt P32455).
The target is the same in test [2]. Description: cross-linking.
The target of test [3] is GBP1 M139E, non-farnesylated (human) (UniProt P32455). Description: SEC. For orientation: Size exclusion chromatography separates by hydrodynamic size, large species first.
Test [4] concerns the target GBP1 M139R, non-farnesylated (human) (UniProt P32455). Briefly: SEC.
Test [5] deals with GBP1 Δ207-223 variant, farnesylated (human) (UniProt P32455). Description: cross-linking.
Test [6] has as its target T1, human guanylate-binding protein 1 (GBP1), wild type, non-farnesylated (human), P32455.
T1 chain: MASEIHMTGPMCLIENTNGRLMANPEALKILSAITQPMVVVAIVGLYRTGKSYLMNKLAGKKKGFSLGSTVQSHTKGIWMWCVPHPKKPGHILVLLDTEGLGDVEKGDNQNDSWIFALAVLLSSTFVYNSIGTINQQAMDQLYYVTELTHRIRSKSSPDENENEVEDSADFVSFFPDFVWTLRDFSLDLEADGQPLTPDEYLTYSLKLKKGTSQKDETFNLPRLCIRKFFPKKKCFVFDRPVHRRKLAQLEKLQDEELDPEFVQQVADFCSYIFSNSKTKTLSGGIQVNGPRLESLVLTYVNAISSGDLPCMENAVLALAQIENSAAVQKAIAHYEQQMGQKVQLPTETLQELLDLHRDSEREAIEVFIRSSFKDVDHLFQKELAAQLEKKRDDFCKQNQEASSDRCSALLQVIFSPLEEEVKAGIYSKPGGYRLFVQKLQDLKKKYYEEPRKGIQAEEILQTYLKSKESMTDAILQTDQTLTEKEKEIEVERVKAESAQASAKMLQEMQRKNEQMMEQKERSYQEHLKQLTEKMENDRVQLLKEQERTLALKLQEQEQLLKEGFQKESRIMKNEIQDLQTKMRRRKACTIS
Briefly: cross-linking. The settings on record: remark: other sources report otherwise.

In test [7] the target is T1, human guanylate-binding protein 1 …. Briefly: GTP hydrolysis assay. The settings on record: remark: other sources report otherwise.
Test [8] deals with T2, human guanylate-binding protein 1 (GBP1), wild type, farnesylated (human), P32455.
T2 chain: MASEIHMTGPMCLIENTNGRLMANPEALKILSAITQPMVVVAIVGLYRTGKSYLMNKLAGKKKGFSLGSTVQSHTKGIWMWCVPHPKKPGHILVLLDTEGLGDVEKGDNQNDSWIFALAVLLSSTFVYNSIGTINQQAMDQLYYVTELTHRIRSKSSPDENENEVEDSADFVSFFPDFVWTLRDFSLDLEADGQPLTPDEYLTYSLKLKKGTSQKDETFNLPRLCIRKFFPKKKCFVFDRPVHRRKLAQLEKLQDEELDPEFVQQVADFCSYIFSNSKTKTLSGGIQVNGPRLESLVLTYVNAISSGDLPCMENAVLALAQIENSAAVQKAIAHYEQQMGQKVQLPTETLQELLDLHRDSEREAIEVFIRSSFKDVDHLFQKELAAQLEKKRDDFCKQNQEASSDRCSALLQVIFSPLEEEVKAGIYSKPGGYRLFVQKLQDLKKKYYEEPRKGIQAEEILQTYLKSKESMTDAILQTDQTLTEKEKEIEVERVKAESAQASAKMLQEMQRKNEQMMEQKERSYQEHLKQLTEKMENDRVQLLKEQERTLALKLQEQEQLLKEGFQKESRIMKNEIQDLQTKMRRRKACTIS
Description: cryo-EM structure. The settings on record: remark: other sources report otherwise.

By stoichiometry N is commonly meant a count of units in the complex or per binding partner. One may read the Kd as a measure of binding affinity in units of concentration. Low values mean tighter binding, high ones weaker binding.

With “GBP1 Δ207-223 variant, non-farnesylated (from UniProt P32455 1-592) (natural protein)”, in test [1], the catalytic GTPase activity against wild-type (GTP hydrolysis assay) came out at 1.7 fold. For the same molecule, in test [2], the stoichiometry N came to 2.

Consider “GBP1 M139E, non-farnesylated (from UniProt P32455 1-592) (natural protein)”, for which the stoichiometry N in test [3] was found to be 2.

“GBP1 M139R, non-farnesylated (from UniProt P32455 1-592) (natural protein)” returned a stoichiometry N in test [4] of 2.

Molecule “GBP1 Δ207-223 variant, farnesylated (from UniProt P32455) (natural protein)” registered a stoichiometry N in test [5] of 2.

B1: human guanylate-binding protein 1 (GBP1), wild type, non-farnesylated, P32455 1-592 (natural protein)
chain: MASEIHMTGPMCLIENTNGRLMANPEALKILSAITQPMVVVAIVGLYRTGKSYLMNKLAGKKKGFSLGSTVQSHTKGIWMWCVPHPKKPGHILVLLDTEGLGDVEKGDNQNDSWIFALAVLLSSTFVYNSIGTINQQAMDQLYYVTELTHRIRSKSSPDENENEVEDSADFVSFFPDFVWTLRDFSLDLEADGQPLTPDEYLTYSLKLKKGTSQKDETFNLPRLCIRKFFPKKKCFVFDRPVHRRKLAQLEKLQDEELDPEFVQQVADFCSYIFSNSKTKTLSGGIQVNGPRLESLVLTYVNAISSGDLPCMENAVLALAQIENSAAVQKAIAHYEQQMGQKVQLPTETLQELLDLHRDSEREAIEVFIRSSFKDVDHLFQKELAAQLEKKRDDFCKQNQEASSDRCSALLQVIFSPLEEEVKAGIYSKPGGYRLFVQKLQDLKKKYYEEPRKGIQAEEILQTYLKSKESMTDAILQTDQTLTEKEKEIEVERVKAESAQASAKMLQEMQRKNEQMMEQKERSYQEHLKQLTEKMENDRVQLLKEQERTLALKLQEQEQLLKEGFQKESRIMKNEIQDLQTKMRRRKACTIS
Take B1: the stoichiometry N in test [6] came to 2. Also, in test [7], the Kd is 1900 nM.

B2: human guanylate-binding protein 1 (GBP1), wild type, farnesylated, P32455 (natural protein)
chain: MASEIHMTGPMCLIENTNGRLMANPEALKILSAITQPMVVVAIVGLYRTGKSYLMNKLAGKKKGFSLGSTVQSHTKGIWMWCVPHPKKPGHILVLLDTEGLGDVEKGDNQNDSWIFALAVLLSSTFVYNSIGTINQQAMDQLYYVTELTHRIRSKSSPDENENEVEDSADFVSFFPDFVWTLRDFSLDLEADGQPLTPDEYLTYSLKLKKGTSQKDETFNLPRLCIRKFFPKKKCFVFDRPVHRRKLAQLEKLQDEELDPEFVQQVADFCSYIFSNSKTKTLSGGIQVNGPRLESLVLTYVNAISSGDLPCMENAVLALAQIENSAAVQKAIAHYEQQMGQKVQLPTETLQELLDLHRDSEREAIEVFIRSSFKDVDHLFQKELAAQLEKKRDDFCKQNQEASSDRCSALLQVIFSPLEEEVKAGIYSKPGGYRLFVQKLQDLKKKYYEEPRKGIQAEEILQTYLKSKESMTDAILQTDQTLTEKEKEIEVERVKAESAQASAKMLQEMQRKNEQMMEQKERSYQEHLKQLTEKMENDRVQLLKEQERTLALKLQEQEQLLKEGFQKESRIMKNEIQDLQTKMRRRKACTIS
modifications: here or on the partner: farnesyl moiety, C-terminal (CaaX box motif); farnesyl moiety, C-terminal (CaaX box motif)
B2 showed a subunits (outstretched GBP1 dimers) in one planar disk in test [8] of 30.

The values are drawn from paper doi:10.1101/2023.08.01.551421 (bioRxiv, 2023).
